According to the DeepSol protein solubility set:

Assay: soluble on expression in E. coli; label from the status in PepcDB or PDB records

| Sequence | soluble on expression in E. coli |
| --- | --- |
| MATTKRVLYVGGLAEEVDDKVLHAAFIPFGDITDIQIPLDYETEKHRGFAFVEFELAEDAAAAIDNMNESELFGRTIRVNLAKPMRIKE | soluble |
| MGSDKIHHHHHHMTTNSLLIIDFEFTMPDGKYSPQNFFPEIIEAGIVKSIDDEVVETFSSYVRPKKFPKLTKRCKSFLKITQKQVDEGMRFEDFIRKLNELDPEKNSTIITWGNMDMKVLKQNCMFNHIPFPFKGEMRDLSLEYKNFFGDRTLTGLWKAAEEYGDSGTGTHHKALDDALTAYKLFKLVEQDKQYLEKPKPPTIGERIDLTELLKRAT | not soluble |
| MMNPLIIKLGGVLLDSEEALERLFSALVNYRESHQRPLVIVHGGGCVVDELMKGLNLPVKKKNGLRVTPADQIDIITGALAGTANKTLLAWAKKHQIAAVGLFLGDGDSVKVTQLDEELGHVGLAQPGSPKLINSLLENGYLPVVSSIGVTDEGQLMNVNADQAATALAATLGADLILLSDVSGILDGKGQRIAEMTAAKAEQLIEQGIITDGMIVKVNAALDAARTLGRPVDIASWRHAEQLPALFNGMPMGTRILA | soluble |
| MGSDKIHHHHHHVLVLVLFTTVDRTPYKQMPYYTSMMKALDTFHVDVQHKKGDTLRAAWYKVALTPHTFPHPLAGYGLRKKAVSVNDTTFVRTFIFDNAKTRVAYVSLDLLIFPPALKDRVRAELETTYNLQVFLTATHTHSAPGGWEPKIAGRVLAGEYSDEYVALLFNAINECISKAIPRLQKVEQAYIRVSAPEAVQNRLKGADAPKDSFIRGIKFRNKSGEEACLFTFAAHANCLNSDVDYVSADYPGIVSAELEKRKWASFVSYAAGAVGSHAPTFETILDGKLRADTVSSILVEKLQETKAAYAYTNQLYYHRLPLFLRDAHLRVEKDIRIRPWVFNTILGKDIPDIQIIEIGETVLLGMPCDYSGELMPPLEKICADNQSNFMLSGFNGGYIGYITDDACYDWDRGETMDMNWFGPYNAAYLTEVNTVILKKVLTGE | not soluble |
| MAHHHHHHMDRQVINLEEILPFSYTRDVELVPMYCFEVKKEVAKDALNIMKDYINNQLYDKYNHLKRCRKCTDSVQILIGACNHIPFELSQKLIEKMKQENNNDEFNDIIITKIMVSKYAPITRKQYIEWSTYWPLYFRKPDKDILILTKEEINKYIKLLYISIDIGKQFGTCNSGCIITYNDEIIASSGDNIKNHPLHHAPMLAIEQVSYKLRHIWLNKQTEKNNLQKKMKIIHKQQINNRDSLNDHKHENNKSNHNILIDHIPNDQYLCTNFFAFLSHEPCYMCAMALLHSRIKCVIFDKENKNNGALSSQEKLHCIKNLNHHFKVFKTIRG | not soluble |
| ASIFGVFDIKTDAVELRKKALELSRLMRHRGPDWSGIYASDNAILAHERLSIVDVNAGAQPLYNQQKTHVLAVNGEIYNHQALRAEYGDRYQFQTGSDCEVILALYQEKGPEFLDDLQGMFAFALYDSEKDAYLIGRDHLGIIPLYMGYDEHGQLYVASEMKALVPVCRTIKEFPAGSYLWSQDGEIRSYYHRDWFDYDAVKDNVTDKNELRQALEDSVKSHLMSDVPYGVLLSGGLDSSIISAITKKYAARRVEDQERSEAWWPQLHSFAVGLPGSPDLKAAQEVANHLGTVHHEIHFTVQEGLDAIRDVIYHIETYDVTTIRASTPMYLMSRKIKAMGIKMVLSGEGSDEVFGGYLYFHKAPNAKELHEETVRKLLALHMYDCARANKAMSAWGVEARVPFLDKKFLDVAMRINPQDKMCGNGKMEKHILRECFEAYLPASVAWRQKEQFSDGVGYSWIDTLKEVAAQQVSDQQLETARFRFPYNTPTSKEAYLYREIFEELFPLPSAAECVPGGPSVACSSAKAIEWDEAFKKMDDPSGRAVGVHQSAYK | soluble |
| MSLNSTFSIVDLETTAPFKEGGHIIQIGISFVKNWKIINNFQTMVNPGVKIPEQIVDLTGIKNEDVENAPYFEDLARMIHDQLSGTVFVAHNVRYDFPYLNGEFARIKMRRLRLEYVDTVQLAQIVFPTMNSYKLDELVSKLGINLPRHHRADQDASATAQLFLKIHEHLQEFPQNTLNNLINHSKSLLGNTETIFQLSKGKRTFPGDRYGPFDIARLKKIDKGQLIKWIEAKKQSSLSKPLPATVLRPRQESFANILQSKITGKNNKIFSVFSRPRFGKTNAYLDLAVKIAAKGYKILIIEENYLRRRSTFQKSQSLFPENKDLFQIPITRKDFVSLDKLADAFLTEDNPSRQLAKLRVISWLLKSRTGNLNEFVNGFPEPLFNFFSDQDSPNKFDYFERSISSYTFPSIAITDLDSFLRTKNEFSREYNLFIFDVDKGVSNLIDMLPFFSKKIILFTQAQSYIKNWYSIRDFSDMNSVILSLGSELKEGHHHHHH | not soluble |
| MNYLKTSGIVIKEVNTGEADRIITIFSKNKGKISALAKGARRPKSHLVAGTQLLCYSEFVLFKGKDMYTVNSCDVIESFYDIRNDLERLTYAAHMMDIVNDVILENQPASRLLQLFLNSLYMLSKTDRSPLQIVRVFEIRLLSTMGYAPWVSSCIKCGSTVFDSMYFSFLKCGFLCSKCLENDKGALKISEGAAKALNYIVHSKMSNLFSFEVSESVLDELGKVSQRYMKERLEKNYTKLDFIKTLDRIKC | soluble |
| MQFQRARSDKQKNIRMSEIVNATINLYESLQYDKITLALIAKQLSFSRANLYKYVSTKEEIFLLIISGDIENWSKEVVKFFDKYDALSAEEFCKLWSELLYRHKRIIELFCILNTIIARNVSAEKLAAFKKQIHKDFTRTKKVVKRFFPFMSKEQLKFFIEYQMKYAVGVYPATIINDVQKKASELSGIPSNVKDFESSFSKFLMVILNGIEITI | not soluble |
| CSCSPVHPQQAFCNADIVIRAKAVNKKEVDSGNDIYGNPIKRIQYEIKQIKMFKGPDQDIEFIYTAPAAAVCGVSLDIGGKKEYLIAGKAEGNGNMHITLCDFIVPWDTLSATQKKSLNHRYQMGCECKITRCPMIPCYISSPDECLWMDWVTEKNINGHQAKFFACIKRSDGSCAWYRGAAPP | soluble |
| MGSDKIHHHHHHMKKVLGLVVSNRKLGNSEILVKEIINNIPEECNRELIRLTDLEIKPCKACYRCLQPNNACPVRDDFNFVIEKIREADALIIGVPVYFLGPHGYYKMLTDRLLGSQNYSQDTQGKPCIIVMPYGSEGWEGYSKIACMVMPKLLRMKLVDCWQIHASLPGESLLNPENISYARALGRELFNGREYHAESKECPICGSDLFRLINENQVECPICGSRGILKNNFSPDFSDSDYRRFSDHEMDEHFKGWLLEMKDRFSAEKNHLKELQKGYRNQNWWIKPCRLDEC | not soluble |
| MGSDKIHHHHHHMKQIIDIENWERKENFNFFRHFQNPQLSITSEVECGGARQRAKAAGQSFFLHYLYAVLRAANEIPEFRYRIDPDGRVVLYDTIDMLSPIKIKENGKFFTTRFPYHNDFDTFYQEARLIIDAIPEDGDPYAAENEEVADGDYGLILLSATPDLYFTSITGTQEKRSGNNYPLLNAGKAIIREGRLVMPIAMTIHHGFIDGHHLSLFYKKVEDFLK | not soluble |
| MVRQPAVAGQFYTDDPRRLREELGHLIRPVPAPRRVTGVIAPHAGYMYSGAIAGAVYGSIVIPRTVVILGPNHHGLGAAASLYPDGTWLSPLGEVPIEQRLSSLVLEHVPQAEPDVIAHRFEHSLEVQVPFLRYLNSDVAIVPMCLGGGGYGWCRQVGEGLARAIAAYGEEVLIVASSDMTHYESAESARLKDEAALSCVLALDAEGLLKVCRQRGITMCGVIPSTVMLVAARELGASRAELIRYGTSGDVTGDNRQVVAYAAVAVYLEHHHHHH | not soluble |
| KQLEKDLLASAETLQRERHQIANALESEIKTELCDLYMDKADFKVVFTKGKFNRDGNEQVEFYISTNPGEGFKPLVKVASGGELSRLMLAIKSAFARKEDKTSIVFDEVDTGVSGRVAQAIAQKIHKIGSYGQVLAISHLPQVIAIADYQFFISKESDNETTVSRVRLLTPEERVEEIAKMLAGDNLTDAALSQARALLKVDEPV | not soluble |
| MAFANFRRILRLSTFEKRKSREYEHVRRDLDPNEVWEIVGELGDGAFGKVYKAKNKETGALAAAKVIETKSEEELEDYIVEIEILATCDHPYIVKLLGAYYHDGKLWIMIEFCPGGAVDAIMLELDRGLTEPQIQVVCRQMLEALNFLHSKRIIHRDLKAGNVLMTLEGDIRLADFGVSAKNLKTLQKRDSFIGTPYWMAPEVVMCETMKDTPYDYKADIWSLGITLIEMAQIEPPHHELNPMRVLLKIAKSDPPTLLTPSKWSVEFRDFLKIALDKNPETRPSAAQLLEHPFVSSITSNKALRELVAEAKAEVMEEIEDGRDEGEEEDAVDAASTLENHTQNSSEVSPPSLNADKPLEESPSTPLAPSQSQDSVNEPCSQPSGDRSLQTTSPPVVAPGNENGLAVPVPLRKSRPVSMDARIQVAQEKQVAEQGGDLSPAANRSQKASQSRPNSSALETLGGEKLANGSLEPPAQAAPGPSKRDSDCSSLCTSESMDYGTNLSTDLSLNKEMGSLSIKDPKLYKKTLKRTRKFVVDGVEVSITTSKIISEDEKKDEEMRFLRRQELRELRLLQKEEHRNQTQLSNKHELQLEQMHKRFEQEINAKKKFFDTELENLERQQKQQVEKMEQDHAVRRREEARRIRLEQDRDYTRFQEQLKLMKKEVKNEVEKLPRQQRKESMKQKMEEHTQKKQLLDRDFVAKQKEDLELAMKRLTTDNRREICDKERECLMKKQELLRDREAALWEMEEHQLQERHQLVKQQLKDQYFLQRHELLRKHEKEREQMQRYNQRMIEQLKVRQQQEKARLPKIQRSEGKTRMAMYKKSLHINGGGSAAEQREKIKQFSQQEEKRQKSERLQQQQKHENQMRDMLAQCESNMSELQQLQNEKCHLLVEHETQKLKALDESHNQNLKEWRDKLRPRKKALEEDLNQKKREQEMFFKLSEEAECPNPSTPSKAAKFFPYSSADAS | soluble |
| MGSDKIHHHHHHMTQEQTRPKHMAAGETPEQHAAFEARIARGEKIEPGDWMPAEYRRQLIRMISQHAHSEVVGMLPEGEWIARAPSLKRKTILMAKVQDEAGHGQYLYHAAETLGVTREEMLDALLTRKAKYSSIFNYPTLTWADVGMIGWLVDGAAIKNQTMLAGCSYGPYSRAMVRICSEETFHHKQGKEMMVLYAQGTPEQRQMAQDALNRWWWPAVQMLGPHDSDSPNTGALSKWGIKLKTNDEVRQEFINEHVPELLEAGLTIPDPDLHQDEAGNWVHGPIDWSEFWAVIKGEQGLGNERLATRQAAQDEGAWVREALEAYMARQAKGEAAD | not soluble |
| MRNTKGNELEDREILASSLHANGISETVLLQIWNATEENLDKLVSALNVYKKGKISITWHEIMTVKENNEAIIPFSVAVQNIYGAFKNIDEELAELARNAIESGWVDAEPRENKPPGGFCAPFFSEKESRISMRYDGSIDSVRILAHELGHAWHFYNMSFEQSSSFLDDYLPMSTAESASIFFETLLINYLIQTTDSIDIKKSLLSWKIRNCFNYVMAIRASFEFEKNFYEKCKESPISADEIEKISIVAQEKAYGNALSEYQPFVWMKYVQFYIADVPFYNYPYTFGYLVSFSLLEIAKENKSTFHSKFKEFLRENGKAPVEELIKKHFEIDITSYAFWDKAFKQISKDIDAYLRLI | not soluble |
| MPKSEIRKLLQEIKKQVDNPGNSSTTEIKKMASEAGIDEQTAEEIYHLLTEFYQAVEEHGGIEKYMHSNISWLKIELELLSACYQIAILEDMKVLDISEMLSLNDLRIFPKTPSQLQNTYYKLKKELIQVEDIPKNKPGRKRKTQKNTKKEKTNIFGKVVPALEHHHHHH | soluble |
| MAHHHHHHMLRRVSLSALVQRVAAGAVIATAGRTIVVFSQQHHILESNQRARNSPSNVWIEDWEADRLGMKPEPGALPTQLVLDKQLELFNFDQLLSPPEVMEAPKHSSYSSRKVYGERLQFELNDRAQRHSYQSKWWITRGQAYKENLQFKANARSSILLTKSQIKLFHSSQLSGGEALQQYPVSGGSRRVYSKKGEAFQLLQDHIKSNDFNSGLYFTRRQMEFFKLAPLPDQVPVVQEAATGDRHLIYNVDQLEDPHLALKTLQRAPVNVPTFLLSGEPIMSENTRKFPKTFRSNYWLTGRDAELYQWPIKESERRRGVPFSTGTSAPVQYELFNVEQLSNPDEAFARAGLLIQ | soluble |
